Results from PMC10876603.

Target: microtubules (polymerised α/β-tubulin) (UniProt Q6B856)
Chain of UniProt Q6B856 (Q6B856 whole entry, looked up): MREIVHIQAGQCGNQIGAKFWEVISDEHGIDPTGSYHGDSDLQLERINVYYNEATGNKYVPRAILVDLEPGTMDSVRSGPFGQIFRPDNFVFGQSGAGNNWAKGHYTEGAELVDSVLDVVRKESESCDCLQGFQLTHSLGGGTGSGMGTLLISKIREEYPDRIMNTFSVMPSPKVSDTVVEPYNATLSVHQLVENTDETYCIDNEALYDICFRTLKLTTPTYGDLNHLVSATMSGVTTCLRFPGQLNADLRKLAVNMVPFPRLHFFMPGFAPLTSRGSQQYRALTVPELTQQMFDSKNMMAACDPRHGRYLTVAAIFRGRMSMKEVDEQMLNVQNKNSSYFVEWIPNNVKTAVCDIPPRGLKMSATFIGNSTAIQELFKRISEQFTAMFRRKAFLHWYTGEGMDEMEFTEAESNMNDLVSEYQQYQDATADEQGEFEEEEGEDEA

width of bundles of GMpCpp-stabilized rhodamine-labeled MTs (100 nM) after 2 min with 4 μM CEN, TIRF microscopy (single GMpCpp MTs measure 0.34 μm): 0.46 μm
Substance: human CEN subcomplex with wild-type Borealin (CEN-Borealin^wt) (from UniProt Q9NQS7 1-58; O15392 1-142; Q53HL2 1-280)
